Patent publication US20110251246A1

Target: His-tagged MUC1 cytoplasmic domain (His-MUC1-CD) (human)
Test: SPR (BIAcore), His-MUC1-CD immobilized on the sensor chip, peptide injected at 10 µM, 1:1 binding model

## MUC1/CQC peptide
  Kd: 30 nM
